Article PMC2873509, “The RNA binding protein HuR does not interact directly with HIV-1 reverse transcriptase and does not affect reverse transcription in vitro”

How the values were obtained:
[1] = molecular target: T1, NusA-HuR (UniProt Q15717 1-326); experiment: EMSA; 0-3 uM HuR, 100 nM RNA; EMSA: 50 mM Tris pH 7.5, 50 mM KCl, 37 C, 1 h, 100 nM 32P-RNA; 7% native PAGE in 40 mM Tris-acetate pH 8.0, 1 mM EDTA, room temperature; details: protein: recombinant; tags: N-terminal NusA fusion, TEV site ENLYFQS; Ni-NTA purified; label: 32P
[2] = molecular target: T1, NusA-HuR; experiment: EMSA; EMSA: 50 mM Tris pH 7.5, 50 mM KCl, 37 C, 1 h, 100 nM 32P-RNA; 7% native PAGE in 40 mM Tris-acetate pH 8.0, 1 mM EDTA, room temperature; details: protein: recombinant; tags: N-terminal NusA fusion, TEV site ENLYFQS; Ni-NTA purified; label: 32P; RNA template with annealed primer

T1 sequence (Q15717 whole entry, the tested form may be a part): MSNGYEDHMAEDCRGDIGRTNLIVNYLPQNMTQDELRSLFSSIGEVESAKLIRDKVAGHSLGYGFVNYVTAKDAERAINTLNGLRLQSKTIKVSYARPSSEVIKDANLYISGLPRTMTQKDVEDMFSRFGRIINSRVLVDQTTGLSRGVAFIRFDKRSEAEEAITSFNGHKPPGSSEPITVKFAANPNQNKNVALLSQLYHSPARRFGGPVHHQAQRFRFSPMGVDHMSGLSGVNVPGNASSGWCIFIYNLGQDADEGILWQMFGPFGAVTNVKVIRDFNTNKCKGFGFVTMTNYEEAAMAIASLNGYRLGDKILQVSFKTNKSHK

Question: Does UCAGAUAUUUAUAUUUUUAUUUUAUUUUUUUCUACCUUGAGGUCUUUUGA (ssRNA) [ARE-containing synthetic ssRNA (Fig. 2C)] bind [1]?
Answer: binds

B1: ARE-containing template/primer (Fig. 4B) (mixed)
RNA: UCAGAUAUUUAUAUUUUUAUUUUAUUUUUUUCUACCUUGAGGUCUUUUGA
DNA: CACTAGTCAAAAGACCTC
Question: Does B1 bind [2]?
Answer: binds
